Common to all, as to assay: cell-based or functional assay
Assay [1] addresses MEK1 (UniProt Q02750 1-393).
Assay [2] has as its target T1, MKK4 (Mitogen-Activated Protein Kinase Kinase 4) (UniProt P45985 1-399).
T1 sequence: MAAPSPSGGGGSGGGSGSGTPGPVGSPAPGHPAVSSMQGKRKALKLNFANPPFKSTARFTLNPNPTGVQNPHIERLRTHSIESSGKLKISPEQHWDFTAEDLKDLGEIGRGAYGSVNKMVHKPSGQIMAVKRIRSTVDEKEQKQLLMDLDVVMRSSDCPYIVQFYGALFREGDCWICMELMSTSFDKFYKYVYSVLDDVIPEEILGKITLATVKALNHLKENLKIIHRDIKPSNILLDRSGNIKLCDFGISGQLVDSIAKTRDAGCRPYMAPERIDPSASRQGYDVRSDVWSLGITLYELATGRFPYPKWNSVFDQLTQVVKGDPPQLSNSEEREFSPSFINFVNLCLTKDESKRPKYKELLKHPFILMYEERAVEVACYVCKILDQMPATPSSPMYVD

Assay [3] addresses T2, PRAK (p38-Regulated/Activated Protein Kinase) (UniProt Q8IW41 1-473).
T2 sequence: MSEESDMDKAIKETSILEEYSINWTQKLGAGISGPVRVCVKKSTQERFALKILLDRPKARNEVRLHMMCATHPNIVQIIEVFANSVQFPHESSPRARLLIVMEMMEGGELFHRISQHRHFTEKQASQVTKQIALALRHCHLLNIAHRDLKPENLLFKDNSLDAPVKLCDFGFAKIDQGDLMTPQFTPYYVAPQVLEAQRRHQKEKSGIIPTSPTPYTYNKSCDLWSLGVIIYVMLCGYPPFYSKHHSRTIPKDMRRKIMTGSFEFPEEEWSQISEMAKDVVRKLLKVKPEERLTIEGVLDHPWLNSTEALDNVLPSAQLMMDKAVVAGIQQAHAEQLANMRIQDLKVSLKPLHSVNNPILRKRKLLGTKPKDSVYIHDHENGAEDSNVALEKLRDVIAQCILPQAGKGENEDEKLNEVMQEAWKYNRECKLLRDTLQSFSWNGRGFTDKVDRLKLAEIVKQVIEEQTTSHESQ

Assay [4] addresses JNK (c-Jun N-terminal Kinase).
For assay [5], the target named is p38 MAPK (p38 Mitogen-Activated Protein Kinase).
Assay [6] deals with T3, MKK6 (Mitogen-Activated Protein Kinase Kinase) (UniProt P52564 1-334).
T3 sequence: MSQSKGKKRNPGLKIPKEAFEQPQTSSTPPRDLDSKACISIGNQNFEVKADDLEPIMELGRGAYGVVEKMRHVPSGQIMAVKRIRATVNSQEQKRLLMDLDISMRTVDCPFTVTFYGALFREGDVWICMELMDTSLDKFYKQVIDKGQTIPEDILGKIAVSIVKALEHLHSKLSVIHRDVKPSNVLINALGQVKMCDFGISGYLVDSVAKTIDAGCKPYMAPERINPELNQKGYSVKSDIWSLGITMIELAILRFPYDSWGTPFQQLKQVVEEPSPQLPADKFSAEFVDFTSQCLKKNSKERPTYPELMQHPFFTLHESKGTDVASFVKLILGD

Where no end group is shown, it is not given here.

On to YARAAARQARAKALARQLGVAA (not fully specified (C-terminus)) [MMI-0100 (YARAAARQARAKALARQLGVAA; SEQ ID NO: 1)], for which the “Percent Activity (radiometric kinase assay, 100 µM peptide)” value in assay [1] is 68 percent activity; in assay [2], 90 percent activity; in assay [3], 100 percent activity; in assay [4], 92 percent activity; in assay [5] it was 60 percent activity; in assay [6] it was 50 percent activity.

The values above are taken from US20110288036A1 (published 2011).
